Experimental data published in patent US20250171562A1 (ALK ABELL, published 2025).

Target: T1, recombinant human IgE (human, UniProt P01854-1 1-428)
T1 construct: made in-house (ALK); preloaded on immobilised FcεRIα in the displacement ELISA
Experiment: IgE-FcεRIα displacement ELISA
Procedure, shortened: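 sdAbs at pM–μM were incubated 1 h on preformed complexes of 13 ng/ml recombinant human IgE with avi-tag-biotinylated human FcεRIα captured on streptavidin.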

T1 sequence (P01854 other isoform, or with tags, fused parts or gaps): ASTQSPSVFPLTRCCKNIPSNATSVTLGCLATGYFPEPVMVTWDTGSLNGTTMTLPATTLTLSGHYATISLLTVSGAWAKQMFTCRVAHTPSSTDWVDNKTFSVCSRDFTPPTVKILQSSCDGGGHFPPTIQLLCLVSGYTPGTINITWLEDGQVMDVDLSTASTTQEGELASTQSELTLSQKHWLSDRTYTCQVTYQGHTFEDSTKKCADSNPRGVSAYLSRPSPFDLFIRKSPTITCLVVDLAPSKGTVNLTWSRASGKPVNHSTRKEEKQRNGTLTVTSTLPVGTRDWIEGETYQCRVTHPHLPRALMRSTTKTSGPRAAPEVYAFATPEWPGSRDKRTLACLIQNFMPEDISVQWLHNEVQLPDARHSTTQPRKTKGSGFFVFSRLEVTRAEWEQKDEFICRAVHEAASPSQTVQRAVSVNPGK

Binder | EC50 [nM] | Max effect [%]
B2A1(G4S)4 (bispecific antibody) QVQLVESGGGLVQAGGSLRLSCAVFGSTFSNNVADWYRQAPGKQRELVARISASGATREYGDSVKGRFTISRDDAKNTMYLQMNNLKPEDTAVYRCHKIEWEDLSRKDYWGQGTQVTVSGGGGSGGGGSGGGGSGGGGSEVQLLESGGGLVQPGGSLRLSCAASGFTFGNYDMAWVRQAPGKRPEWVSSIDTGGDITHYADSVKGRFTISRDNAKNTLYLQMNSLRPEDTAVYWCATDEEYALGPNEFDYYGQGTLVTVS | 30 | > 95
CIgG4B1A1(G2SG2S) (Fc fusion) chain 1: GPPCPPCPAPEFLGGPSVFLFPPKPKDTLMISRTPEVTCVVVDVSQEDPEVQFNWYVDGVEVHNAKTKPREEQFNSTYRVVSVLTVLHQDWLNGKEYKCKVSNKGLPSSIEKTISKAKGQPREPQVYTLPPCQEEMTKNQVSLWCLVKGFYPSDIAVEWESNGQPENNYKTTPPVLDSDGSFFLYSRLTVDKSRWQEGNVFSCSVMHEALHNHYTQKSLSLSLGKGGSGGSQVQLQESGGGLVQTGGSLRLSCAVHGRTFSNTGMGWFRQAPGNERQFVAIISPSGTSTYYADSVKGRFTISRDPAKNTVYLQMNSLKMDDTAVYYCAASYGSNWSTLRHQRRNEYDAWGQGTQVAVS chain 2: GPPCPPCPAPEFLGGPSVFLFPPKPKDTLMISRTPEVTCVVVDVSQEDPEVQFNWYVDGVEVHNAKTKPREEQFNSTYRVVSVLTVLHQDWLNGKEYKCKVSNKGLPSSIEKTISKAKGQPREPQVCTLPPSQEEMTKNQVSLSCAVKGFYPSDIAVEWESNGQPENNYKTTPPVLDSDGSFFLVSRLTVDKSRWQEGNVFSCSVMHEALHNHYTQKSLSLSLGKGGSGGSEVQLLESGGGLVQPGGSLRLSCAASGFTFGNYDMAWVRQAPGKRPEWVSSIDTGGDITHYADSVKGRFTISRDNAKNTLYLQMNSLRPEDTAVYWCATDEEYALGPNEFDYYGQGTLVTVSS | 3.8 | > 95
B1A1(G4S)4 (bispecific antibody, two sdAbs linked by a peptide linker) QVQLQESGGGLVQTGGSLRLSCAVHGRTFSNTGMGWFRQAPGNERQFVAIISPSGTSTYYADSVKGRFTISRDPAKNTVYLQMNSLKMDDTAVYYCAASYGSNWSTLRHQRRNEYDAWGQGTQVAVSGGGGSGGGGSGGGGSGGGGSEVQLLESGGGLVQPGGSLRLSCAASGFTFGNYDMAWVRQAPGKRPEWVSSIDTGGDITHYADSVKGRFTISRDNAKNTLYLQMNSLRPEDTAVYWCATDEEYALGPNEFDYYGQGTLVTVS | 1.9 | > 95
CIgG4B1A1(EAAAK) (Fc fusion) chain 1: GPPCPPCPAPEFLGGPSVFLFPPKPKDTLMISRTPEVTCVVVDVSQEDPEVQFNWYVDGVEVHNAKTKPREEQFNSTYRVVSVLTVLHQDWLNGKEYKCKVSNKGLPSSIEKTISKAKGQPREPQVYTLPPCQEEMTKNQVSLWCLVKGFYPSDIAVEWESNGQPENNYKTTPPVLDSDGSFFLYSRLTVDKSRWQEGNVFSCSVMHEALHNHYTQKSLSLSLGKEAAAKQVQLQESGGGLVQTGGSLRLSCAVHGRTFSNTGMGWFRQAPGNERQFVAIISPSGTSTYYADSVKGRFTISRDPAKNTVYLQMNSLKMDDTAVYYCAASYGSNWSTLRHQRRNEYDAWGQGTQVAVS chain 2: GPPCPPCPAPEFLGGPSVFLFPPKPKDTLMISRTPEVTCVVVDVSQEDPEVQFNWYVDGVEVHNAKTKPREEQFNSTYRVVSVLTVLHQDWLNGKEYKCKVSNKGLPSSIEKTISKAKGQPREPQVCTLPPSQEEMTKNQVSLSCAVKGFYPSDIAVEWESNGQPENNYKTTPPVLDSDGSFFLVSRLTVDKSRWQEGNVFSCSVMHEALHNHYTQKSLSLSLGKEAAAKEVQLLESGGGLVQPGGSLRLSCAASGFTFGNYDMAWVRQAPGKRPEWVSSIDTGGDITHYADSVKGRFTISRDNAKNTLYLQMNSLRPEDTAVYWCATDEEYALGPNEFDYYGQGTLVTVSS | 3 | > 95
D2A1(G4S)4 (bispecific antibody) DVQLQESGGGLVEAGGSLRLSCVASGRTFSGWSMGWFRQAPGKEREFVAAISWVGSWIGGTVYSNSVKGRFTISRDNARTTVYLQMNSLKPEDTAVYFCAAANSETPRIFASEYDYWGQGTQVTVSGGGGSGGGGSGGGGSGGGGSEVQLLESGGGLVQPGGSLRLSCAASGFTFGNYDMAWVRQAPGKRPEWVSSIDTGGDITHYADSVKGRFTISRDNAKNTLYLQMNSLRPEDTAVYWCATDEEYALGPNEFDYYGQGTLVTVS | 8 | > 95
CIgG4B1A1(EAAAK)2 (Fc fusion) chain 1: GPPCPPCPAPEFLGGPSVFLFPPKPKDTLMISRTPEVTCVVVDVSQEDPEVQFNWYVDGVEVHNAKTKPREEQFNSTYRVVSVLTVLHQDWLNGKEYKCKVSNKGLPSSIEKTISKAKGQPREPQVYTLPPCQEEMTKNQVSLWCLVKGFYPSDIAVEWESNGQPENNYKTTPPVLDSDGSFFLYSRLTVDKSRWQEGNVFSCSVMHEALHNHYTQKSLSLSLGKEAAAKEAAAKQVQLQESGGGLVQTGGSLRLSCAVHGRTFSNTGMGWFRQAPGNERQFVAIISPSGTSTYYADSVKGRFTISRDPAKNTVYLQMNSLKMDDTAVYYCAASYGSNWSTLRHQRRNEYDAWGQGTQVAVS chain 2: GPPCPPCPAPEFLGGPSVFLFPPKPKDTLMISRTPEVTCVVVDVSQEDPEVQFNWYVDGVEVHNAKTKPREEQFNSTYRVVSVLTVLHQDWLNGKEYKCKVSNKGLPSSIEKTISKAKGQPREPQVCTLPPSQEEMTKNQVSLSCAVKGFYPSDIAVEWESNGQPENNYKTTPPVLDSDGSFFLVSRLTVDKSRWQEGNVFSCSVMHEALHNHYTQKSLSLSLGKEAAAKEAAAKEVQLLESGGGLVQPGGSLRLSCAASGFTFGNYDMAWVRQAPGKRPEWVSSIDTGGDITHYADSVKGRFTISRDNAKNTLYLQMNSLRPEDTAVYWCATDEEYALGPNEFDYYGQGTLVTVSS | 4.1 | > 95
A1B3(G4S)4 (bispecific antibody) EVQLLESGGGLVQPGGSLRLSCAASGFTFGNYDMAWVRQAPGKRPEWVSSIDTGGDITHYADSVKGRFTISRDNAKNTLYLQMNSLRPEDTAVYWCATDEEYALGPNEFDYYGQGTLVTVSGGGGSGGGGSGGGGSGGGGSDVQLQESGGGLVQAGGSLRLSCAASGFIFRLAGMSWVRQAPGKGFEWVSGITMDGSTTNYADSVKGRFTISRDNSKNRLYLQMNSLKPEDTAVYYCARGAKGGYNDPRGQGTQVTVS | 190 | 80

These reach a lower EC50. Values come first.

EC50 [nM] | Max effect [%] | Binder
1.4 | > 95 | A1B2(G4S)4 (bispecific antibody) EVQLLESGGGLVQPGGSLRLSCAASGFTFGNYDMAWVRQAPGKRPEWVSSIDTGGDITHYADSVKGRFTISRDNAKNTLYLQMNSLRPEDTAVYWCATDEEYALGPNEFDYYGQGTLVTVSGGGGSGGGGSGGGGSGGGGSQVQLVESGGGLVQAGGSLRLSCAVFGSTFSNNVADWYRQAPGKQRELVARISASGATREYGDSVKGRFTISRDDAKNTMYLQMNNLKPEDTAVYRCHKIEWEDLSRKDYWGQGTQVTVS
0.3 | > 95 | B3A1(G4S)4 (bispecific antibody) DVQLQESGGGLVQAGGSLRLSCAASGFIFRLAGMSWVRQAPGKGFEWVSGITMDGSTTNYADSVKGRFTISRDNSKNRLYLQMNSLKPEDTAVYYCARGAKGGYNDPRGQGTQVTVSGGGGSGGGGSGGGGSGGGGSEVQLLESGGGLVQPGGSLRLSCAASGFTFGNYDMAWVRQAPGKRPEWVSSIDTGGDITHYADSVKGRFTISRDNAKNTLYLQMNSLRPEDTAVYWCATDEEYALGPNEFDYYGQGTLVTVS
0.9 | > 95 | A1B1(G4S)4 (bispecific antibody) EVQLLESGGGLVQPGGSLRLSCAASGFTFGNYDMAWVRQAPGKRPEWVSSIDTGGDITHYADSVKGRFTISRDNAKNTLYLQMNSLRPEDTAVYWCATDEEYALGPNEFDYYGQGTLVTVSGGGGSGGGGSGGGGSGGGGSQVQLQESGGGLVQTGGSLRLSCAVHGRTFSNTGMGWFRQAPGNERQFVAIISPSGTSTYYADSVKGRFTISRDPAKNTVYLQMNSLKMDDTAVYYCAASYGSNWSTLRHQRRNEYDAWGQGTQVAVS
